B1: GpH7-B3 variant E333_03V/GpL16-k0 (antibody, human IgG1, kappa)
heavy: not shown
light: DIVMTQSPLSLPVTPGEPASISCQASESLVHSNRNTYLHWYLQKPGQSPQLLIYKVSNRFSGVPDRFSGSGSGTDFTLKISRVEAEDVGVYYCSQNTHVPPTFGQGTKVEIERTVAAPSVFIFPPSDEQLKSGTASVVCLLNNFYPREAKVQWKVDNALQSGNSQESVTEQDSKDSTYSLSSTLTLSKADYEKHKVYACEVTHQGLSSPVTKSFNRGEC
notes: both H chains altered; also called Ho Ab E333_03V
B2: GpH7-B3 variant G236_15Y/GpL16-k0 (antibody, human IgG1, kappa)
heavy: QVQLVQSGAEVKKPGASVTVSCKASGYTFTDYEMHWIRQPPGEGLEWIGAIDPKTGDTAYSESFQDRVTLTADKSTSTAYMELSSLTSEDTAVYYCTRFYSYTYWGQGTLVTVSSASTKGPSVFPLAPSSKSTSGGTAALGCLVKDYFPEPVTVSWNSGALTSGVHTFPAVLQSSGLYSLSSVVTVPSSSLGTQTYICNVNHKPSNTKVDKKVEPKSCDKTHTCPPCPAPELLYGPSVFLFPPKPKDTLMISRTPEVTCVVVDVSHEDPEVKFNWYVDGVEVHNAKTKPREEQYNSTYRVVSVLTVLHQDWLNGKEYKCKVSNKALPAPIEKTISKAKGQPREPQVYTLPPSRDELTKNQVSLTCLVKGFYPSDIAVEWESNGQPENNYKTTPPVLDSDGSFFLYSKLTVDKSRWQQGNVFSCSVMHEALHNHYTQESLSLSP
light: DIVMTQSPLSLPVTPGEPASISCQASESLVHSNRNTYLHWYLQKPGQSPQLLIYKVSNRFSGVPDRFSGSGSGTDFTLKISRVEAEDVGVYYCSQNTHVPPTFGQGTKVEIERTVAAPSVFIFPPSDEQLKSGTASVVCLLNNFYPREAKVQWKVDNALQSGNSQESVTEQDSKDSTYSLSSTLTLSKADYEKHKVYACEVTHQGLSSPVTKSFNRGEC
notes: both H chains altered; also called Ho Ab G236_15Y
B3: GpH7-B3 variant P238_09D/GpL16-k0 (antibody, human IgG1, kappa)
heavy: not shown
light: DIVMTQSPLSLPVTPGEPASISCQASESLVHSNRNTYLHWYLQKPGQSPQLLIYKVSNRFSGVPDRFSGSGSGTDFTLKISRVEAEDVGVYYCSQNTHVPPTFGQGTKVEIERTVAAPSVFIFPPSDEQLKSGTASVVCLLNNFYPREAKVQWKVDNALQSGNSQESVTEQDSKDSTYSLSSTLTLSKADYEKHKVYACEVTHQGLSSPVTKSFNRGEC
notes: both H chains altered; also called Ho Ab P238_09D
B4: GpH7-B3 variant L234_20W/GpL16-k0 (antibody, human IgG1, kappa)
heavy: not shown
light: DIVMTQSPLSLPVTPGEPASISCQASESLVHSNRNTYLHWYLQKPGQSPQLLIYKVSNRFSGVPDRFSGSGSGTDFTLKISRVEAEDVGVYYCSQNTHVPPTFGQGTKVEIERTVAAPSVFIFPPSDEQLKSGTASVVCLLNNFYPREAKVQWKVDNALQSGNSQESVTEQDSKDSTYSLSSTLTLSKADYEKHKVYACEVTHQGLSSPVTKSFNRGEC
notes: both H chains altered; also called Ho Ab L234_20W
B5: GpH7-B3 variant E333_20W/GpL16-k0 (antibody, human IgG1, kappa)
heavy: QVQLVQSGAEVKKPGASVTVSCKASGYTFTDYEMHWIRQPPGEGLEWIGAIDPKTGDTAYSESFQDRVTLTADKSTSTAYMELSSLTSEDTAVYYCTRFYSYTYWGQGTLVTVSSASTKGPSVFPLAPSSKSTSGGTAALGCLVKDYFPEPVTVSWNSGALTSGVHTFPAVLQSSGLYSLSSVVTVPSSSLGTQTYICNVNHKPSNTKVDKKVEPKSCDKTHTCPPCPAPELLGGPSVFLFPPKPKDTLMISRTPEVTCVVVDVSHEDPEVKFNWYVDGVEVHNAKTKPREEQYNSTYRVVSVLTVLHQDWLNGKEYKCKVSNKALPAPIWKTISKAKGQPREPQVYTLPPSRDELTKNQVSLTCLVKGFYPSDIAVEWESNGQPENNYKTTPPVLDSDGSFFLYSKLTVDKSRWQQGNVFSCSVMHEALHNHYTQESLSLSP
light: DIVMTQSPLSLPVTPGEPASISCQASESLVHSNRNTYLHWYLQKPGQSPQLLIYKVSNRFSGVPDRFSGSGSGTDFTLKISRVEAEDVGVYYCSQNTHVPPTFGQGTKVEIERTVAAPSVFIFPPSDEQLKSGTASVVCLLNNFYPREAKVQWKVDNALQSGNSQESVTEQDSKDSTYSLSSTLTLSKADYEKHKVYACEVTHQGLSSPVTKSFNRGEC
notes: both H chains altered; also called Ho Ab E333_20W
B6: GpH7-B3 variant L234_04F/GpL16-k0 (antibody, human IgG1, kappa)
heavy: not shown
light: DIVMTQSPLSLPVTPGEPASISCQASESLVHSNRNTYLHWYLQKPGQSPQLLIYKVSNRFSGVPDRFSGSGSGTDFTLKISRVEAEDVGVYYCSQNTHVPPTFGQGTKVEIERTVAAPSVFIFPPSDEQLKSGTASVVCLLNNFYPREAKVQWKVDNALQSGNSQESVTEQDSKDSTYSLSSTLTLSKADYEKHKVYACEVTHQGLSSPVTKSFNRGEC
notes: both H chains altered; also called Ho Ab L234_04F
B7: GpH7-B3 variant L234_15Y/GpL16-k0 (antibody, human IgG1, kappa)
heavy: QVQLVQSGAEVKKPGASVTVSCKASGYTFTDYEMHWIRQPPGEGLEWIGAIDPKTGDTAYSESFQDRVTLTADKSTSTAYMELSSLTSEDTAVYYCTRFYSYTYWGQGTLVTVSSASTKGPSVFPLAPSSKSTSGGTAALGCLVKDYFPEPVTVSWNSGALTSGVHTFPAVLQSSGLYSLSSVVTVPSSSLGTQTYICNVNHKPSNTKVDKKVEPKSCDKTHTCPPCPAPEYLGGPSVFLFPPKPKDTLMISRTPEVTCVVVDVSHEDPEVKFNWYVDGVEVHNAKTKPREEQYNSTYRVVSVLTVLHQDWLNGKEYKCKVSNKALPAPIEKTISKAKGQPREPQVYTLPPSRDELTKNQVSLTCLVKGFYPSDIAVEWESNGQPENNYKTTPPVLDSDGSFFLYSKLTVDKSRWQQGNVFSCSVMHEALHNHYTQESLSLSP
light: DIVMTQSPLSLPVTPGEPASISCQASESLVHSNRNTYLHWYLQKPGQSPQLLIYKVSNRFSGVPDRFSGSGSGTDFTLKISRVEAEDVGVYYCSQNTHVPPTFGQGTKVEIERTVAAPSVFIFPPSDEQLKSGTASVVCLLNNFYPREAKVQWKVDNALQSGNSQESVTEQDSKDSTYSLSSTLTLSKADYEKHKVYACEVTHQGLSSPVTKSFNRGEC
notes: both H chains altered; also called Ho Ab L234_15Y
B8: GpH7-B3 variant L234_07I/GpL16-k0 (antibody, human IgG1, kappa)
heavy: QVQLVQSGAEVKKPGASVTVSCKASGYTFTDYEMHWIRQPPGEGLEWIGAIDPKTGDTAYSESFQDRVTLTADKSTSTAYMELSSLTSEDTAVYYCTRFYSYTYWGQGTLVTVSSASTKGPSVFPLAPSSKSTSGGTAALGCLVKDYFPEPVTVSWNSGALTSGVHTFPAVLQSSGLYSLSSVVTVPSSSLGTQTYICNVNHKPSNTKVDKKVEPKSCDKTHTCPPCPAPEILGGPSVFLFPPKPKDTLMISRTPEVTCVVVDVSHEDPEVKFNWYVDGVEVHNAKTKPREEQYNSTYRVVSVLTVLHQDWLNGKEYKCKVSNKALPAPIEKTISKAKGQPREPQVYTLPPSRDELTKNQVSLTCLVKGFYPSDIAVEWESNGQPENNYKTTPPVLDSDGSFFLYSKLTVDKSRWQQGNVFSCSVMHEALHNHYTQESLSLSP
light: DIVMTQSPLSLPVTPGEPASISCQASESLVHSNRNTYLHWYLQKPGQSPQLLIYKVSNRFSGVPDRFSGSGSGTDFTLKISRVEAEDVGVYYCSQNTHVPPTFGQGTKVEIERTVAAPSVFIFPPSDEQLKSGTASVVCLLNNFYPREAKVQWKVDNALQSGNSQESVTEQDSKDSTYSLSSTLTLSKADYEKHKVYACEVTHQGLSSPVTKSFNRGEC
notes: both H chains altered; also called Ho Ab L234_07I
B9: GpH7-B3 variant I336_08L/GpL16-k0 (antibody, human IgG1, kappa)
heavy: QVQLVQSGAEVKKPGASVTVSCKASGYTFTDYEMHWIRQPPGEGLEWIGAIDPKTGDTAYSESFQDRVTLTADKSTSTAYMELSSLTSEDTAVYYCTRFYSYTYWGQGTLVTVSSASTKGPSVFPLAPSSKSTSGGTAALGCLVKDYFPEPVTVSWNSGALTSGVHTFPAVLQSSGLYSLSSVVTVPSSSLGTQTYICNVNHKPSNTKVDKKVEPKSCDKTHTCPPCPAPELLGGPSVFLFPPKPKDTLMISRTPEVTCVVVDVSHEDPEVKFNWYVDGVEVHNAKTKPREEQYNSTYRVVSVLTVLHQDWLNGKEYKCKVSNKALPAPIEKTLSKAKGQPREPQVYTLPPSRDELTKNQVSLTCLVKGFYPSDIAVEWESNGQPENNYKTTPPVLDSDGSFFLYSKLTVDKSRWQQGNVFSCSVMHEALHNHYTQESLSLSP
light: DIVMTQSPLSLPVTPGEPASISCQASESLVHSNRNTYLHWYLQKPGQSPQLLIYKVSNRFSGVPDRFSGSGSGTDFTLKISRVEAEDVGVYYCSQNTHVPPTFGQGTKVEIERTVAAPSVFIFPPSDEQLKSGTASVVCLLNNFYPREAKVQWKVDNALQSGNSQESVTEQDSKDSTYSLSSTLTLSKADYEKHKVYACEVTHQGLSSPVTKSFNRGEC
notes: both H chains altered; also called Ho Ab I336_08L
B10: GpH7-B3 variant P238_10E/GpL16-k0 (antibody, human IgG1, kappa)
heavy: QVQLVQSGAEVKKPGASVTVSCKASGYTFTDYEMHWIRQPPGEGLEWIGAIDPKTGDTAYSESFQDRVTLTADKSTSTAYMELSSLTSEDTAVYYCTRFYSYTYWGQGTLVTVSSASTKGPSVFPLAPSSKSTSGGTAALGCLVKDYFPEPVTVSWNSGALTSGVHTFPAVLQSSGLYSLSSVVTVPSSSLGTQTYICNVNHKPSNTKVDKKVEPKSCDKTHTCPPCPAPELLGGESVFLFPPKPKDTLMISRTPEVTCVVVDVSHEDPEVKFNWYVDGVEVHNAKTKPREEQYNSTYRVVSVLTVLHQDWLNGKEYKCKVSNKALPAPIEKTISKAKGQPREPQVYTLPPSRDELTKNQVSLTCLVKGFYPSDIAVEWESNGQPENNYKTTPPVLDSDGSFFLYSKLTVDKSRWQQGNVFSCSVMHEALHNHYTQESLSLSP
light: DIVMTQSPLSLPVTPGEPASISCQASESLVHSNRNTYLHWYLQKPGQSPQLLIYKVSNRFSGVPDRFSGSGSGTDFTLKISRVEAEDVGVYYCSQNTHVPPTFGQGTKVEIERTVAAPSVFIFPPSDEQLKSGTASVVCLLNNFYPREAKVQWKVDNALQSGNSQESVTEQDSKDSTYSLSSTLTLSKADYEKHKVYACEVTHQGLSSPVTKSFNRGEC
notes: both H chains altered; also called Ho Ab P238_10E
B11: GpH7-B3 variant H268_18N/GpL16-k0 (antibody, human IgG1, kappa)
heavy: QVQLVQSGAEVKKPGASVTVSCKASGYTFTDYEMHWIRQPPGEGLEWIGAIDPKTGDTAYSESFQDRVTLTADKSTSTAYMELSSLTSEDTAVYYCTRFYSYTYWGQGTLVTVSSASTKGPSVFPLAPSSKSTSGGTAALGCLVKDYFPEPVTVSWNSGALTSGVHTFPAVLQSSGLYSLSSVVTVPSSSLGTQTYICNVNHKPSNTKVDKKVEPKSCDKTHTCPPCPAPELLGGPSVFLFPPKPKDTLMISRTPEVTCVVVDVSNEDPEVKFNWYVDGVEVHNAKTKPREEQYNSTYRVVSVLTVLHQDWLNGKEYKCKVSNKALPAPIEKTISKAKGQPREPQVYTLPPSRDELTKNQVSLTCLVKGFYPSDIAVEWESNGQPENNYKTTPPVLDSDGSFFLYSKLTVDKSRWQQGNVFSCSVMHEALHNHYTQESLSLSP
light: DIVMTQSPLSLPVTPGEPASISCQASESLVHSNRNTYLHWYLQKPGQSPQLLIYKVSNRFSGVPDRFSGSGSGTDFTLKISRVEAEDVGVYYCSQNTHVPPTFGQGTKVEIERTVAAPSVFIFPPSDEQLKSGTASVVCLLNNFYPREAKVQWKVDNALQSGNSQESVTEQDSKDSTYSLSSTLTLSKADYEKHKVYACEVTHQGLSSPVTKSFNRGEC
notes: both H chains altered; also called Ho Ab H268_18N
B12: GpH7-B3 variant E333_04F/GpL16-k0 (antibody, human IgG1, kappa)
heavy: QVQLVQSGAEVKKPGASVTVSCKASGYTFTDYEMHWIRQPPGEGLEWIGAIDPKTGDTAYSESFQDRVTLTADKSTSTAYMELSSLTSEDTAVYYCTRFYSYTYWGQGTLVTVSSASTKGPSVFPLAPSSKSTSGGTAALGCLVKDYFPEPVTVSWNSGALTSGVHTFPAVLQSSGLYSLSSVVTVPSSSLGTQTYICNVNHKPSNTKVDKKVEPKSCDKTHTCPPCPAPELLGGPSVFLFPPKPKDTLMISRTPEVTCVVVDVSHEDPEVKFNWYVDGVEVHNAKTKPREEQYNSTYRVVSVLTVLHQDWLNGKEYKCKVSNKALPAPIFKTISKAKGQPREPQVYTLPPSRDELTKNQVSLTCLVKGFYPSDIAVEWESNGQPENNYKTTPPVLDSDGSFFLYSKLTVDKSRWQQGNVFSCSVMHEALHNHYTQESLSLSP
light: DIVMTQSPLSLPVTPGEPASISCQASESLVHSNRNTYLHWYLQKPGQSPQLLIYKVSNRFSGVPDRFSGSGSGTDFTLKISRVEAEDVGVYYCSQNTHVPPTFGQGTKVEIERTVAAPSVFIFPPSDEQLKSGTASVVCLLNNFYPREAKVQWKVDNALQSGNSQESVTEQDSKDSTYSLSSTLTLSKADYEKHKVYACEVTHQGLSSPVTKSFNRGEC
notes: both H chains altered; also called Ho Ab E333_04F
B13: GpH7-B3 variant L234_09D/GpL16-k0 (antibody, human IgG1, kappa)
heavy: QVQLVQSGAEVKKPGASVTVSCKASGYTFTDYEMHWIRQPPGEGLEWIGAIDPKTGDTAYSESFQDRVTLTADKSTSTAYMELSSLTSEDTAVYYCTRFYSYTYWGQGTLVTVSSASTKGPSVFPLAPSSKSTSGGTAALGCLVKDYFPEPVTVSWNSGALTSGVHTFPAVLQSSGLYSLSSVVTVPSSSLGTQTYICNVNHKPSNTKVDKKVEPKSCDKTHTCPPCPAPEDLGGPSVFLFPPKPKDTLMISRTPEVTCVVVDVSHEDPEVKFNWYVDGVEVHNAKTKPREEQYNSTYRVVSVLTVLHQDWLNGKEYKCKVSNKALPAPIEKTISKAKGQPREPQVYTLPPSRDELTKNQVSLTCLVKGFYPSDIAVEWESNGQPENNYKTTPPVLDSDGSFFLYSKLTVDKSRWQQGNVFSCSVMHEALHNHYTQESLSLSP
light: DIVMTQSPLSLPVTPGEPASISCQASESLVHSNRNTYLHWYLQKPGQSPQLLIYKVSNRFSGVPDRFSGSGSGTDFTLKISRVEAEDVGVYYCSQNTHVPPTFGQGTKVEIERTVAAPSVFIFPPSDEQLKSGTASVVCLLNNFYPREAKVQWKVDNALQSGNSQESVTEQDSKDSTYSLSSTLTLSKADYEKHKVYACEVTHQGLSSPVTKSFNRGEC
notes: both H chains altered; also called Ho Ab L234_09D
B14: GpH7-B3 variant I332_06M/GpL16-k0 (antibody, human IgG1, kappa)
heavy: not shown
light: DIVMTQSPLSLPVTPGEPASISCQASESLVHSNRNTYLHWYLQKPGQSPQLLIYKVSNRFSGVPDRFSGSGSGTDFTLKISRVEAEDVGVYYCSQNTHVPPTFGQGTKVEIERTVAAPSVFIFPPSDEQLKSGTASVVCLLNNFYPREAKVQWKVDNALQSGNSQESVTEQDSKDSTYSLSSTLTLSKADYEKHKVYACEVTHQGLSSPVTKSFNRGEC
notes: both H chains altered; also called Ho Ab I332_06M
B15: GpH7-B3 variant E333_13S/GpL16-k0 (antibody, human IgG1, kappa)
heavy: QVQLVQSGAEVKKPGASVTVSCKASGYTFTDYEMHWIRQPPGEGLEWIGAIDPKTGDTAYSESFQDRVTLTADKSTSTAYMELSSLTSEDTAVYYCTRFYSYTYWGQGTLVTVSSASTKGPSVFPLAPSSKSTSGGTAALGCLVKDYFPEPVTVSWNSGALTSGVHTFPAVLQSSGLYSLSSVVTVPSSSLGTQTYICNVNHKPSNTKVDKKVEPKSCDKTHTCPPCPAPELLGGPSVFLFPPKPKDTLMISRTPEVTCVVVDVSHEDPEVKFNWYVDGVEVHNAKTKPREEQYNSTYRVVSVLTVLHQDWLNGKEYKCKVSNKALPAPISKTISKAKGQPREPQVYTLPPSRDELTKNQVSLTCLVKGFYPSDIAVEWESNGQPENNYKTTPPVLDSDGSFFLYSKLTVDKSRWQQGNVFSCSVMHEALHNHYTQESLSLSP
light: DIVMTQSPLSLPVTPGEPASISCQASESLVHSNRNTYLHWYLQKPGQSPQLLIYKVSNRFSGVPDRFSGSGSGTDFTLKISRVEAEDVGVYYCSQNTHVPPTFGQGTKVEIERTVAAPSVFIFPPSDEQLKSGTASVVCLLNNFYPREAKVQWKVDNALQSGNSQESVTEQDSKDSTYSLSSTLTLSKADYEKHKVYACEVTHQGLSSPVTKSFNRGEC
notes: both H chains altered; also called Ho Ab E333_13S
B16: GpH7-B3 variant G236_20W/GpL16-k0 (antibody, human IgG1, kappa)
heavy: not shown
light: DIVMTQSPLSLPVTPGEPASISCQASESLVHSNRNTYLHWYLQKPGQSPQLLIYKVSNRFSGVPDRFSGSGSGTDFTLKISRVEAEDVGVYYCSQNTHVPPTFGQGTKVEIERTVAAPSVFIFPPSDEQLKSGTASVVCLLNNFYPREAKVQWKVDNALQSGNSQESVTEQDSKDSTYSLSSTLTLSKADYEKHKVYACEVTHQGLSSPVTKSFNRGEC
notes: both H chains altered; also called Ho Ab G236_20W

This test deals with FcγRIIIa extracellular domain with C-terminal His tag (human, UniProt P08637 17-208). In words: SPR (Biacore), both H chains altered; HoCon Ab GpH7-B3/GpL16-k0 = 100. Background: SPR reads the build-up and loss of mass on a sensor chip optically.
FcγRIIIa extracellular domain with C-terminal His tag, sequence (P08637 17-208): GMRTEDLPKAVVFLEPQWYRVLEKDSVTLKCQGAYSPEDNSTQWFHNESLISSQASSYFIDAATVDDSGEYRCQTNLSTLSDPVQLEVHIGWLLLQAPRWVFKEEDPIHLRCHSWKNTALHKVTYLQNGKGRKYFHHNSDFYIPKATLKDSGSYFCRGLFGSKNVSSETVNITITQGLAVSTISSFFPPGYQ
As for B1, the Ho/Con_3a amounted to 86.5%.

Take B2: the Ho/Con_3a is 41.6%.

B3: the Ho/Con_3a was -0.1%.

As to B4, the Ho/Con_3a is 37.1%.

B5: the Ho/Con_3a came to 90.9%.

Regarding B6, the Ho/Con_3a was 49.9%.

Take B7: the Ho/Con_3a came to 64.7%.

Regarding B8, the Ho/Con_3a was 98.2%.

As for B9, the Ho/Con_3a came to 95.8%.

With B10, the Ho/Con_3a was 0.8%.

On to B11, for which the Ho/Con_3a worked out at 90.3%.

On to B12, for which the Ho/Con_3a stood at 87.1%.

As to B13, the Ho/Con_3a came out at 52.8%.

On to B14, for which the Ho/Con_3a is 95.4%.

Take B15: the Ho/Con_3a was 95.1%.

On to B16, for which the Ho/Con_3a turned out to be 58.3%.

(Values after US20150344570A1 (published 2015).)
